Data on 23 substances can be found in article PMC9792355.

What all share (experiment): luciferase complementation assay
The target in experiment [1] is C1-fused SRC kinases (mean among the nine SRC kinases). The settings on record: HEK293T cells.
The target in experiment [2] is N1-fused SRC kinases (mean among the nine SRC kinases). The settings on record: HEK293T cells.
In experiment [3] the target is N2-SKAP2 DomDIM2 deletion mutant (DIM domain alone). The conditions noted are these: HEK293T cells; read off a plot.
Experiment [4] concerns the target DomDIM1 SKAP1 mutant (DIM domain of SKAP1). The conditions noted are these: HEK293T cells; read off a plot.
Experiment [5] concerns the target N2-SKAP2 (SRC kinase adaptor phosphoprotein 2, wildtype) (UniProt O75563). The settings on record: HEK293T cells, read off a plot.

As to “N2-SKAP2 (SRC kinase adaptor phosphoprotein 2, wildtype) (from UniProt O75563) Y75F; Y237F; Y261F”, the ratio to parent turned out to be 1.01 in experiment [1] and 0.76 in experiment [2].

Take “N2-SKAP2 (SRC kinase adaptor phosphoprotein 2, wildtype) (from UniProt O75563) W336K”: the ratio to parent in experiment [1] came out at 1.48; in experiment [2] it was 1.64.

On to “C1-fused HCK (hematopoietic cell kinase), wildtype (from UniProt P08631-2) Y501F”, for which the response (NLR normalized to HCK-N1) in experiment [3] is 7.7; in experiment [4], 3.8.

For “N2-SKAP2 (SRC kinase adaptor phosphoprotein 2, wildtype) (from UniProt O75563) D129K”, the ratio to parent in experiment [1] worked out at 2.27; in experiment [2], 1.55.

Consider “N1-fused HCK (hematopoietic cell kinase), wildtype (from UniProt P08631-2) I309A; T311A”, for which the response (NLR normalized to HCK-N1) in experiment [3] was found to be 0.9; in experiment [5], 1; in experiment [4] it was 0.65.

For “N1-fused HCK (hematopoietic cell kinase), wildtype (from UniProt P08631-2) Y30F”, the response (NLR normalized to HCK-N1) in experiment [3] was found to be 1.2; in experiment [4] it was 0.9.

“N2-SKAP2 (SRC kinase adaptor phosphoprotein 2, wildtype) (from UniProt O75563) V24D; F27G; V28E; D129K”: the ratio to parent in experiment [1] worked out at 1.04; in experiment [2], 0.93.

On to “N2-SKAP2 (SRC kinase adaptor phosphoprotein 2, wildtype) (from UniProt O75563) Y151F; Y197F”, for which the ratio to parent was found to be 0.71 in experiment [1] and 0.8 in experiment [2].

As for “C1-fused HCK (hematopoietic cell kinase), wildtype (from UniProt P08631-2) Y390F”, the response (NLR normalized to HCK-N1) in experiment [3] stood at 3.8; in experiment [4] it was 0.42.

In the case of “N2-SKAP2 (SRC kinase adaptor phosphoprotein 2, wildtype) (from UniProt O75563) E15A; R18A; V24D; F27G; V28E”, the ratio to parent in experiment [1] is 0.48; in experiment [2], 0.41.

For the substance “N2-SKAP2 (SRC kinase adaptor phosphoprotein 2, wildtype) (from UniProt O75563) E15A; R18A”, the ratio to parent in experiment [1] stood at 1.19; in experiment [2], 1.3.

In experiment [4], “N1-fused HCK (hematopoietic cell kinase), wildtype (from UniProt P08631-2) Y390F” returned a response (NLR normalized to HCK-N1) of 0.7.

Take “N1-fused HCK (hematopoietic cell kinase), wildtype (from UniProt P08631-2) Y501F”: the figures for the response (NLR normalized to HCK-N1) in experiment [3] and in experiment [4] were 6.4 and 7, respectively.

As to “N2-SKAP2 (SRC kinase adaptor phosphoprotein 2, wildtype) (from UniProt O75563) R140M”, the ratio to parent in experiment [1] is 0.79; in experiment [2], 0.96.

“N2-SKAP2 (SRC kinase adaptor phosphoprotein 2, wildtype) (from UniProt O75563) V24D; F27G; V28E”: the ratio to parent came out at 0.41 in experiment [1] and 0.43 in experiment [2].

In the case of “C1-fused HCK (hematopoietic cell kinase), wildtype (from UniProt P08631-2) I309A; T311A”, the response (NLR normalized to HCK-N1) in experiment [3] turned out to be 0.29; in experiment [5] it was 0.1; in experiment [4], 0.07. Also, the response (normalized NLR) in experiment [5] (parent: est. 85) was 16.

On to “N1-fused HCK (hematopoietic cell kinase), wildtype (from UniProt P08631-2) R150A”, for which the results for the response (NLR normalized to HCK-N1) in experiment [3] and in experiment [4] were 7.7 and 8.4, respectively.

In the case of “N2-SKAP2 (SRC kinase adaptor phosphoprotein 2, wildtype) (from UniProt O75563) R140M; D129K”, the ratio to parent came to 0.86 in experiment [1] and 0.84 in experiment [2].

In the case of “N2-SKAP2 (SRC kinase adaptor phosphoprotein 2, wildtype) (from UniProt O75563) D129K; Y75F; Y237F; Y261F”, the ratio to parent in experiment [1] was found to be 1.63; in experiment [2] it was 0.88.

Consider “C1-fused HCK (hematopoietic cell kinase), wildtype (from UniProt P08631-2) Y30F”, for which the response (NLR normalized to HCK-N1) was determined as 0.13 in experiment [3] and 0.055 in experiment [4].

“N1-fused HCK (hematopoietic cell kinase), wildtype (from UniProt P08631-2) W234A” showed a response (NLR normalized to HCK-N1) in experiment [3] of 0.6.

With “C1-fused HCK (hematopoietic cell kinase), wildtype (from UniProt P08631-2) R150A”, the response (NLR normalized to HCK-N1) in experiment [3] was determined as 8.4; in experiment [4] it was 2.9.

As to “N2-SKAP2 (SRC kinase adaptor phosphoprotein 2, wildtype) (from UniProt O75563) K161E”, the figures for the ratio to parent in experiment [1] and in experiment [2] were 0.9 and 1.12, respectively.
